For data set [1], the system named is HeLa Kyoto. The data set can be described thus: melting temperature (median over replicates), in situ; higher = more thermally stable.
In data set [2] the test system is HeLa Kyoto. The data set can be described thus: solubility change mitosis vs G1/S (difference of NP-40 vs SDS log2 ratios) (log2 ratio difference); higher = more soluble in mitosis.
The subject of data set [3] is HeLa Kyoto. The data set can be described thus: solubility in G1/S (NP-40 vs SDS abundance) (log2 ratio); higher = more soluble. The note with it: cell cycle stage: G1/S.
In data set [4] the test system is HeLa Kyoto. The data set can be described thus: thermal stability score vs G1/S (z-score of summed log2 fold changes over temperatures); higher = more thermally stable than in G1/S.
The mark [5] stands for this setting: cell cycle stage: early G1 (4.5 h after nocodazole release).
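For melting temperature (median over replicates), in situ in this document: HeLa Kyoto cells synchronized by double thymidine or nocodazole block, proteins quantified by TMT10plex mass spectrometry, three independent biological replicates.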
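For solubility change mitosis vs G1/S (difference of NP-40 vs SDS log2 ratios) in this document: synchronized HeLa Kyoto cells (double thymidine block for G1/S, nocodazole release for mitosis), protein amounts in NP-40 versus SDS lysates quantified by mass spectrometry, three biological replicates.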
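For solubility in G1/S (NP-40 vs SDS abundance) in this document: HeLa Kyoto cells arrested at G1/S by double thymidine block, proteins quantified by TMT10plex mass spectrometry in mild NP-40 versus SDS extracts, three biological replicates.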
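For thermal stability score vs G1/S (z-score of summed log2 fold changes over temperatures) in this document: synchronized HeLa Kyoto cells, proteins quantified by TMT10plex mass spectrometry, three biological replicates, mitosis taken 0.5 h after nocodazole release, G1/S directly after double thymidine block.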

On to “MAALLRRLLQRERPSAASGRPVGRREANLGTDAGVAVRVRFAPSPTGFLHLGGLRTALYNYIFAKKYQGSFILRLEDTDQTRVVPGAAENIEDMLEWAGIPPDESPRRGGPAGPYQQSQRLELYAQATEALLKTGAAYPCFCSPQRLELLKKEALRNHQTPRYDNRCRNMSQEQVAQKLAKDPKPAIRFRLEQVVPAFQDLVYGWNRHEVASVEGDPVIMKSDGFPTYHLACVVDDHHMGISHVLRGSEWLVSTAKHLLLYQALGWQPPHFAHLPLLLNRDGSKLSKRQGDVFLEHFAADGFLPDSLLDIITNCGSGFAENQMGRTLPELITQFNLTQVTCHSALLDLEKLPEFNRLHLQRLVSNESQRRQLVGKLQVLVEEAFGCQLQNRDVLNPVYVERILLLRQGHICRLQDLVSPVYSYLWTRPAVGRAQLDAISEKVDVIAKRVLGLLERSSMSLTQDMLNGELKKLSEGLEGTKYSNVMKLLRMALSGQQQGPPVAEMMLALGPKEVRERIQKVVSS [EARS2]”, for which the results for the melting temperature in the data set on HeLa Kyoto [1] (cell cycle stage: G1/S) and in the data set with HeLa Kyoto [1] (cell cycle stage: mitosis) were 49.2 °C and 49.5 °C, respectively. The “solubility change mitosis (log2)” value in the data set on HeLa Kyoto [2] is -0.0812. Also, the “solubility in G1/S (log2)” value with HeLa Kyoto [3] came to 0.363. For the same sequence, the figures for the thermal stability score with HeLa Kyoto [4] (setting [5]) and in the data set with HeLa Kyoto [4] (cell cycle stage: mitosis) were -0.077 and 1.7, respectively.

“MAALRVLLSCVRGPLRPPVRCPAWRPFASGANFEYIIAEKRGKNNTVGLIQLNRPKALNALCDGLIDELNQALKTFEEDPAVGAIVLTGGDKAFAAGADIKEMQNLSFQDCYSSKFLKHWDHLTQVKKPVIAAVNGYAFGGGCELAMMCDIIYAGEKAQFAQPEILIGTIPGAGGTQRLTRAVGKSLAMEMVLTGDRISAQDAKQAGLVSKICPVETLVEEAIQCAEKIASNSKIVVAMAKESVNAAFEMTLTEGSKLEKKLFYSTFATDDRKEGMTAFVEKRKANFKDQ [ECHS1]”: the melting temperature amounted to 52.8 °C with HeLa Kyoto [1] (cell cycle stage: G1/S) and 53.3 °C in the data set with HeLa Kyoto [1] (cell cycle stage: mitosis). Moreover, the “solubility change mitosis (log2)” value in the data set with HeLa Kyoto [2] stood at 0.0593. The “solubility in G1/S (log2)” value in the data set on HeLa Kyoto [3] is 0.518. In addition, the thermal stability score with HeLa Kyoto [4] (setting [5]) was -1.11; in the data set on HeLa Kyoto [4] (cell cycle stage: mitosis), -1.89.

As for “MAAMASLGALALLLLSSLSRCSAEACLEPQITPSYYTTSDAVISTETVFIVEISLTCKNRVQNMALYADVGGKQFPVTRGQDVGRYQVSWSLDHKSAHAGTYEVRFFDEESYSLLRKAQRNNEDISIIPPLFTVSVDHRGTWNGPWVSTEVLAAAIGLVIYYLAFSAKSHIQA [SSR4]”, the melting temperature worked out at 55.5 °C in the data set with HeLa Kyoto [1] (cell cycle stage: G1/S) and 54.9 °C in the data set with HeLa Kyoto [1] (cell cycle stage: mitosis). Besides, in the data set with HeLa Kyoto [2], the “solubility change mitosis (log2)” value was found to be 0.0331. Moreover, the “solubility in G1/S (log2)” value in the data set with HeLa Kyoto [3] is 0.0435. For the same sequence, the thermal stability score in the data set on HeLa Kyoto [4] (setting [5]) is 1.62; in the data set on HeLa Kyoto [4] (cell cycle stage: mitosis), -0.139.

Take “MAAMAVALRGLGGRFRWRTQAVAGGVRGAARGAAAGQRDYDLLVVGGGSGGLACAKEAAQLGRKVAVVDYVEPSPQGTRWGLGGTCVNVGCIPKKLMHQAALLGGLIQDAPNYGWEVAQPVPHDWRKMAEAVQNHVKSLNWGHRVQLQDRKVKYFNIKASFVDEHTVCGVAKGGKEILLSADHIIIATGGRPRYPTHIEGALEYGITSDDIFWLKESPGKTLVVGASYVALECAGFLTGIGLDTTIMMRSIPLRGFDQQMSSMVIEHMASHGTRFLRGCAPSRVRRLPDGQLQVTWEDSTTGKEDTGTFDTVLWAIGRVPDTRSLNLEKAGVDTSPDTQKILVDSREATSVPHIYAIGDVVEGRPELTPIAIMAGRLLVQRLFGGSSDLMDYDNVPTTVFTPLEYGCVGLSEEEAVARHGQEHVEVYHAHYKPLEFTVAGRDASQCYVKMVCLREPPQLVLGLHFLGPNAGEVTQGFALGIKCGASYAQVMRTVGIHPTCSEEVVKLRISKRSGLDPTVTGCUG [TXNRD2]”: the melting temperature was found to be 53.6 °C with HeLa Kyoto [1] (cell cycle stage: G1/S) and 53 °C in the data set with HeLa Kyoto [1] (cell cycle stage: mitosis). Besides, the “solubility change mitosis (log2)” value in the data set on HeLa Kyoto [2] was -0.16. Moreover, in the data set with HeLa Kyoto [3], the “solubility in G1/S (log2)” value came to 0.0295. Moreover, the thermal stability score with HeLa Kyoto [4] (setting [5]) was 2.59; with HeLa Kyoto [4] (cell cycle stage: mitosis), -1.79.

Regarding “MAANKPKGQNSLALHKVIMVGSGGVGKSALTLQFMYDEFVEDYEPTKADSYRKKVVLDGEEVQIDILDTAGQEDYAAIRDNYFRSGEGFLCVFSITEMESFAATADFREQILRVKEDENVPFLLVGNKSDLEDKRQVSVEEAKNRAEQWNVNYVETSAKTRANVDKVFFDLMREIRARKMEDSKEKNGKKKRKSLAKRIRERCCIL [RALA]”, the results for the melting temperature in the data set on HeLa Kyoto [1] (cell cycle stage: G1/S) and in the data set on HeLa Kyoto [1] (cell cycle stage: mitosis) were 58.9 °C and 57.4 °C, respectively. Moreover, the “solubility change mitosis (log2)” value with HeLa Kyoto [2] was -0.0413. Further, in the data set on HeLa Kyoto [3], the “solubility in G1/S (log2)” value came out at 0.0126. Further, the thermal stability score is -3.71 in the data set on HeLa Kyoto [4] (setting [5]) and -3.15 in the data set on HeLa Kyoto [4] (cell cycle stage: mitosis).

Values taken from the supplement of paper PMC5998384.
